From article PMC3934934, “The Self-Interaction of a Nodavirus Replicase Is Enhanced by Mitochondrial Membrane Lipids” (PLoS ONE, 2014)

How the values were obtained:
Conditions in all cases: one partner purified
[1] = biological target: T1, MBP-protA fragment aa 1–480 (Wuhan nodavirus (WhNV), UniProt Q3KSM3 1-480); test: pull-down; MBP fusion protein (1 µM) held on amylose resin, His-tagged protein (1 µM) in vitro translated in rabbit reticulocyte lysate; room temperature, 4 hrs; no lipids; Western blot with anti-His; signals given as % of FL to FL protein A self-interaction
T1 construct: also called 1–480 MBP/protA; source: E. coli strain TB1, purified (amylose resin); not shown: MBP, N-terminal, kept
T1 sequence: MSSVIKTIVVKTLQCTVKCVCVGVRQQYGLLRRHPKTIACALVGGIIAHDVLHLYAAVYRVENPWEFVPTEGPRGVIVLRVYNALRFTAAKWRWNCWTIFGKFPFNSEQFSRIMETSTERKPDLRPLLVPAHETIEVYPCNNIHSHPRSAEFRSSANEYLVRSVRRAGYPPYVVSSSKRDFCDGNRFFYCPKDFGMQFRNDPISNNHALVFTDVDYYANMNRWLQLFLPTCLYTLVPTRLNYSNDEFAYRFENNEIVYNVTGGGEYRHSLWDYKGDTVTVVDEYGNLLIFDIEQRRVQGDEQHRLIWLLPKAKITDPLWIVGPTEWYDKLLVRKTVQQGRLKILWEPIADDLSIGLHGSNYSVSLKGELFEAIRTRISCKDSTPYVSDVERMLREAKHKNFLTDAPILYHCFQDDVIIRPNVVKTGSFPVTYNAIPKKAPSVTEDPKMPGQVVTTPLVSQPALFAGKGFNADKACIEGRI

[2] = biological target: T2, MBP-protA fragment aa 481–659 (Wuhan nodavirus (WhNV), UniProt Q3KSM3 481-659); test: as above
T2 construct: source: E. coli strain TB1, purified (amylose resin); not shown: MBP, N-terminal, kept
T2 sequence: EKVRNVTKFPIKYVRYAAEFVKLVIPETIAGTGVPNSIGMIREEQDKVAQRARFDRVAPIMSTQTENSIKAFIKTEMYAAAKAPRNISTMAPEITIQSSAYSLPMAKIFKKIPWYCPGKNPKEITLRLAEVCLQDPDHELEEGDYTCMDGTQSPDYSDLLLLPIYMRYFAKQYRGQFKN

[3] = biological target: T3, MBP-protA fragment aa 1–254 (Wuhan nodavirus (WhNV), UniProt Q3KSM3 1-254); test: as above
T3 construct: also called 1–254 MBP/protA; source: E. coli strain TB1, purified (amylose resin); not shown: MBP, N-terminal, kept
T3 sequence: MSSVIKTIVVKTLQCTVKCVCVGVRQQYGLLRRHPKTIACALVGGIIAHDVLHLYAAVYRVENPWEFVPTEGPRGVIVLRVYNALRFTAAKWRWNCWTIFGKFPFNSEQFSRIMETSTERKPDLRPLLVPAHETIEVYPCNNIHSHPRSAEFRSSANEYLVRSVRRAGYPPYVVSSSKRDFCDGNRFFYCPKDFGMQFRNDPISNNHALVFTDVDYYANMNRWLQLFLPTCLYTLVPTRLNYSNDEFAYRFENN

[4] = biological target: T4, MBP-tagged full-length (FL) WhNV protein A (Wuhan nodavirus (WhNV), UniProt Q3KSM3 1-1014); test: pull-down
T4 construct: also called MBP-protA; 1–1014 MBP/protA; source: E. coli strain TB1, purified (amylose resin); not shown: MBP, N-terminal, kept
T4 sequence: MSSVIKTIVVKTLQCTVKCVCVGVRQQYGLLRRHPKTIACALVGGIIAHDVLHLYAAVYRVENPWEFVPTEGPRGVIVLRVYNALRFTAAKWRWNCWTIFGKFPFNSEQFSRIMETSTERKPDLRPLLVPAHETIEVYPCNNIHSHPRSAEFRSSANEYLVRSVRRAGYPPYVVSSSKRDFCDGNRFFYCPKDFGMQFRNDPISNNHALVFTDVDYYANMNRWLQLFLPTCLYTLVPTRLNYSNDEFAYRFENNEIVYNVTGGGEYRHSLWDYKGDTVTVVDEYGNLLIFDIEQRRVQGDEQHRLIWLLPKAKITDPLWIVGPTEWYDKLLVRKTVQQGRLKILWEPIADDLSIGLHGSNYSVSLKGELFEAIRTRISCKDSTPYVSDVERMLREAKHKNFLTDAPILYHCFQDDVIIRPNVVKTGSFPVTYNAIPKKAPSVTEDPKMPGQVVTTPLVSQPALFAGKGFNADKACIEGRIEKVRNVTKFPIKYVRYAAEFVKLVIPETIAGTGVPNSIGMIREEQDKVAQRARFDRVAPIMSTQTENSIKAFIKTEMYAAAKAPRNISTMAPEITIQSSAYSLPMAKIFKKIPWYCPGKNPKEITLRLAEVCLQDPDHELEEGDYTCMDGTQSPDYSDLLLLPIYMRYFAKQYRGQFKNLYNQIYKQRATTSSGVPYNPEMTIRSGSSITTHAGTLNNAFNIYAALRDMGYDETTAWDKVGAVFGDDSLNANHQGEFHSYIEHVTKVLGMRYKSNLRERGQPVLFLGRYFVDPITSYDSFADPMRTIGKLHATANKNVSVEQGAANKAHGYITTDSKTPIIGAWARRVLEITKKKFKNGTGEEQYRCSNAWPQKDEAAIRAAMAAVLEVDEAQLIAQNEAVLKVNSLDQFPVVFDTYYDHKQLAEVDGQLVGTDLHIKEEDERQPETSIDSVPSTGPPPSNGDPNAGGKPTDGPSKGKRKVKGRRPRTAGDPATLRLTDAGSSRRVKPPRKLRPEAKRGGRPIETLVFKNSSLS

B1: His-tagged WhNV protein A, in vitro translated (natural protein)
chain: MSSVIKTIVVKTLQCTVKCVCVGVRQQYGLLRRHPKTIACALVGGIIAHDVLHLYAAVYRVENPWEFVPTEGPRGVIVLRVYNALRFTAAKWRWNCWTIFGKFPFNSEQFSRIMETSTERKPDLRPLLVPAHETIEVYPCNNIHSHPRSAEFRSSANEYLVRSVRRAGYPPYVVSSSKRDFCDGNRFFYCPKDFGMQFRNDPISNNHALVFTDVDYYANMNRWLQLFLPTCLYTLVPTRLNYSNDEFAYRFENNEIVYNVTGGGEYRHSLWDYKGDTVTVVDEYGNLLIFDIEQRRVQGDEQHRLIWLLPKAKITDPLWIVGPTEWYDKLLVRKTVQQGRLKILWEPIADDLSIGLHGSNYSVSLKGELFEAIRTRISCKDSTPYVSDVERMLREAKHKNFLTDAPILYHCFQDDVIIRPNVVKTGSFPVTYNAIPKKAPSVTEDPKMPGQVVTTPLVSQPALFAGKGFNADKACIEGRIEKVRNVTKFPIKYVRYAAEFVKLVIPETIAGTGVPNSIGMIREEQDKVAQRARFDRVAPIMSTQTENSIKAFIKTEMYAAAKAPRNISTMAPEITIQSSAYSLPMAKIFKKIPWYCPGKNPKEITLRLAEVCLQDPDHELEEGDYTCMDGTQSPDYSDLLLLPIYMRYFAKQYRGQFKNLYNQIYKQRATTSSGVPYNPEMTIRSGSSITTHAGTLNNAFNIYAALRDMGYDETTAWDKVGAVFGDDSLNANHQGEFHSYIEHVTKVLGMRYKSNLRERGQPVLFLGRYFVDPITSYDSFADPMRTIGKLHATANKNVSVEQGAANKAHGYITTDSKTPIIGAWARRVLEITKKKFKNGTGEEQYRCSNAWPQKDEAAIRAAMAAVLEVDEAQLIAQNEAVLKVNSLDQFPVVFDTYYDHKQLAEVDGQLVGTDLHIKEEDERQPETSIDSVPSTGPPPSNGDPNAGGKPTDGPSKGKRKVKGRRPRTAGDPATLRLTDAGSSRRVKPPRKLRPEAKRGGRPIETLVFKNSSLS
notes: also called His-protA; FL His-protA; source: in vitro translated in nuclease-treated rabbit reticulocyte lysates
- self-interaction efficiency, % of FL to FL protein A self-interaction [1]: 94%
- self-interaction efficiency, % of FL to FL protein A self-interaction [2]: 17%
- self-interaction efficiency, % of FL to FL protein A self-interaction [3]: 67%
- fold of the self-interaction without MMLs, at 1 µg/µl MMLs [4]: ~4.6 fold
- fold of the self-interaction without MMLs, at 2 µg/µl MMLs [4]: ~9 fold
- fold of the self-interaction without MMLs, at 5 µg/µl MMLs [4]: ~12 fold
